The record followed here is article doi:10.1101/2025.09.10.675359.

This data set deals with recombinant human CD4 (rCD4) (human, UniProt P01730 26-396). The data set is described as follows: BLI. In general terms: BLI is a label-free optical method that tracks binding on a fibre tip over time.

B1: Apt62 (Aptamer 62) (structured_DNA)
DNA: ATCCAGAGTGACGCAGCACCACCACCGTACAATTCGCTTTCTTTTTTCATTACCTACTCTGGCTTTTT
Usually Kd stands for the constant that tells how readily two partners part at equilibrium. Turning to B1, the dissociation constant (Kd) is 536 nM.
